B1: Jouberin (Homo sapiens), Q8N157 (parent)
chain: MPTAESEAKVKTKVRFEELLKTHSDLMREKKKLKKKLVRSEENISPDTIRSNLHYMKETTSDDPDTIRSNLPHIKETTSDDVSAANTNNLKKSTRVTKNKLRNTQLATENPNGDASVEEDKQGKPNKKVIKTVPQLTTQDLKPETPENKVDSTHQKTHTKPQPGVDHQKSEKANEGREETDLEEDEELMQAYQCHVTEEMAKEIKRKIRKKLKEQLTYFPSDTLFHDDKLSSEKRKKKKEVPVFSKAETSTLTISGDTVEGEQKKESSVRSVSSDSHQDDEISSMEQSTEDSMQDDTKPKPKKTKKKTKAVADNNEDVDGDGVHEITSRDSPVYPKCLLDDDLVLGVYIHRTDRLKSDFMISHPMVKIHVVDEHTGQYVKKDDSGRPVSSYYEKENVDYILPIMTQPYDFKQLKSRLPEWEEQIVFNENFPYLLRGSDESPKVILFFEILDFLSVDEIKNNSEVQNQECGFRKIAWAFLKLLGANGNANINSKLRLQLYYPPTKPRSPLSVVEAFEWWSKCPRNHYPSTLYVTVRGLKVPDCIKPSYRSMMALQEEKGKPVHCERHHESSSVDTEPGLEESKEVIKWKRLPGQACRIPNKHLFSLNAGERGCFCLDFSHNGRILAAACASRDGYPIILYEIPSGRFMRELCGHLNIIYDLSWSKDDHYILTSSSDGTARIWKNEINNTNTFRVLPHPSFVYTAKFHPAVRELVVTGCYDSMIRIWKVEMREDSAILVRQFDVHKSFINSLCFDTEGHHMYSGDCTGVIVVWNTYVKINDLEHSVHHWTINKEIKETEFKGIPISYLEIHPNGKRLLIHTKDSTLRIMDLRILVARKFVGAANYREKIHSTLTPCGTFLFAGSEDGIVYVWNPETGEQVAMYSDLPFKSPIRDISYHPFENMVAFCAFGQNEPILLYIYDFHVAQQEAEMFKRYNGTFPLPGIHQSQDALCTCPKLPHQGSFQIDEFVHTESSSTKMQLVKQRLETVTEVIRSCAAKVNKNLSFTSPPAVSSQQSKLKQSNMLTAQEILHQFGFTQTGIISIERKPCNHQVDTAPTVVALYDYTANRSDELTIHRGDIIRVFFKDNEDWWYGSIGKGQEGYFPANHVASETLYQELPPEIKERSPPLSPEEKTKIEKSPAPQKQSINKNKSQDFRLGSESMTHSEMRKEQSHEDQGHIMDTRMRKNKQAGRKVTLIE
partner: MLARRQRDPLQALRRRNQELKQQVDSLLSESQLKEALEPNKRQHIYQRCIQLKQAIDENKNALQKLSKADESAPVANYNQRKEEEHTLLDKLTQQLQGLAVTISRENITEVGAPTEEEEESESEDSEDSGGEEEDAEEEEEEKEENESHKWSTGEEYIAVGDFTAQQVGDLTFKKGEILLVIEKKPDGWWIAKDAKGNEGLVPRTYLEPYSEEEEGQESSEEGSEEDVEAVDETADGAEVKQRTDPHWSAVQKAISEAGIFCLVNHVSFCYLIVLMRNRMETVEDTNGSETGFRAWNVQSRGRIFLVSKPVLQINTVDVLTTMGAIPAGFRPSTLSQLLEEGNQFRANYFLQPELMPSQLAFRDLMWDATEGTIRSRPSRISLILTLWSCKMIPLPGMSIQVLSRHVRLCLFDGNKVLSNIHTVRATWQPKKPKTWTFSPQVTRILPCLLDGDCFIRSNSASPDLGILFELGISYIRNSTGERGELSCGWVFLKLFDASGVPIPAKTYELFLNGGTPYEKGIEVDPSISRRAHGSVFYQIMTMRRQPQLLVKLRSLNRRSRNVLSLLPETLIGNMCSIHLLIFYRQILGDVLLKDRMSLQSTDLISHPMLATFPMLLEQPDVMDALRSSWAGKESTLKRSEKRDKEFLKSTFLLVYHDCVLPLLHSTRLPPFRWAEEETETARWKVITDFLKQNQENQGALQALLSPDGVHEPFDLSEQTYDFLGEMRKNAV
B2: Jouberin (Homo sapiens), Q8N157 (parent)
chain: B1 chain

Variants of B1 are the subject of the first test. To be noted: with nphp1_human NPHP1, O15259.
For the variant V443D, the “effect of a mutation on the interaction” value is recorded as “disrupting interaction”.

Another test covers variants of B2. To be noted: with hap1_human HAP1, P54257.
Sequence of hap1_human HAP1, P54257 (P54257 whole entry): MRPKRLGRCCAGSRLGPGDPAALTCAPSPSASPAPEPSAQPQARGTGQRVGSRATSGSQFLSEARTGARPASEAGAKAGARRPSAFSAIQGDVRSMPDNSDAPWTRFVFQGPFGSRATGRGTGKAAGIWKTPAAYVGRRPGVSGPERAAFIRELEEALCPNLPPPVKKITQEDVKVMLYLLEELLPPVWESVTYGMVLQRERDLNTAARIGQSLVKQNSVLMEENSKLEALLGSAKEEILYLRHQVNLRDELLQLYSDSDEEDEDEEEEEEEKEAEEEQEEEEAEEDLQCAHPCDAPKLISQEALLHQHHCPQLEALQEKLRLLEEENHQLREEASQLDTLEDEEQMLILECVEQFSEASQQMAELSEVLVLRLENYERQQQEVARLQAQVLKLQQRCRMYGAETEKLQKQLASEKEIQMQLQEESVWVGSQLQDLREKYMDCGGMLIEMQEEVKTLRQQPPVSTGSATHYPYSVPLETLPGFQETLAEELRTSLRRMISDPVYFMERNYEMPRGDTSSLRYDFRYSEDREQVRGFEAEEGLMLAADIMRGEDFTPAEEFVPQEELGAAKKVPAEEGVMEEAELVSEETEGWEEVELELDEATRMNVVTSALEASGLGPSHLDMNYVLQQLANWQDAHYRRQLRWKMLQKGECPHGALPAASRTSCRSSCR
V443D: the “effect of a mutation on the interaction” value is on record as “decreasing interaction”.
